According to article PMC3741231:

Experiments:
[1] = molecular target: human wild type PCSK9-V5 (prosegment≡PCSK9 complex) in conditioned medium (human) (UniProt Q8NBP7)
[2] = molecular target: PCSK9 Δ33-58-V5 (lacking the acidic N-terminal region of the prosegment) (human) (UniProt Q8NBP7)
[3] = molecular target: PCSK9 D374Y-V5 (gain-of-function natural mutant) (human) (UniProt Q8NBP7)
[4] = molecular target: PCSK9 Δ33-58 D374Y-V5 (human) (UniProt Q8NBP7)
[5] = molecular target: human wild type PCSK9-V5 (prosegment≡PCSK9 complex) in conditioned medium (human) (UniProt Q8NBP7); remark: listed apart in the source
[6] = molecular target: human wild type PCSK9-V5 (prosegment≡PCSK9 complex) in conditioned medium (human) (UniProt Q8NBP7); remark: listed apart in the source

For “Fcpro expressed in HepG2/shPCSK9 cells (from UniProt Q8NBP7 31-152) (Fc fusion)”, the fold increase of total LDLR on co-expression of Fcpro with wild type PCSK9 in HepG2/shPCSK9 cells [1] was 1.4 fold, the fold increase of total LDLR on co-expression of Fcpro with PCSK9 Δ33-58 in HepG2/shPCSK9 cells [2] was 1.4 fold and the total LDLR level (normalised to β-actin) in HepG2/shPCSK9 cells co-expressing Fcpro and PCSK9 D374Y, against 0.1 with D374Y alone (relative LDLR level) [3] was 0.44. It also gave a total LDLR level (normalised to β-actin) in HepG2/shPCSK9 cells co-expressing Fcpro and PCSK9 Δ33-58 D374Y, against 0.08 with Δ33-58 D374Y alone (relative LDLR level) [4] of 0.31 and a reversal by co-expressed Fcpro (DNA ratio PCSK9:Fcpro 1:3; ratios up to 1:9 gave no more) of the ∼44% LDLR degradation induced by PCSK9; total LDLR by Western blot of cell lysates [5] of 75%.

“Fcpro (Fc of human IgG1, hinge of human IgG1 and PCSK9 prosegment aa 31-152) (from UniProt Q8NBP7 31-152) (Fc fusion)” was tested, and the reduction by Fcpro (3 µg/ml, pre-incubated with 1 µg/ml PCSK9, both in HEK293 conditioned media) of the LDLR degradation induced by extracellular PCSK9 in HepG2/shPCSK9 cells, 4 h at 37°C [6] was 60%.
